Series [1] addresses T1, TtPPO (Thermothelomyces thermophilus, UniProt G2QLD3, G312N/Y316V).
T1 sequence (G2QLD3 23-424 G312N/Y316V): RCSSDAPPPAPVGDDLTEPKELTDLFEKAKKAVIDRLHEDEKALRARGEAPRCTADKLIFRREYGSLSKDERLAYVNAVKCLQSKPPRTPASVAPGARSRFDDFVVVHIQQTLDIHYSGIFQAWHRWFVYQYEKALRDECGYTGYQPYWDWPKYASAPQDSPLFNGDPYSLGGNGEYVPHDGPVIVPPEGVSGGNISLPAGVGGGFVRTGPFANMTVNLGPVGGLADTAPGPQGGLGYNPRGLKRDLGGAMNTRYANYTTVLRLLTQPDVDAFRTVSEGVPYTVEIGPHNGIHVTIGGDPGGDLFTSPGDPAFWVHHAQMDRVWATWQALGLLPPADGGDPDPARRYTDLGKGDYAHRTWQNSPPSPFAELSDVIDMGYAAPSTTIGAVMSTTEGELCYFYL
Kind of series: spectrophotometric oxidation assay, non-linear regression. The conditions noted are these: 0.1 M sodium phosphate pH 7, 40 °C, 0-5 mM substrate.

In series [2] the target is T2, TtPPO (Thermothelomyces thermophilus, UniProt G2QLD3, Y316V).
T2 sequence (G2QLD3 23-424 Y316V): T1 sequence (G2QLD3 23-424 G312N/Y316V) with N290G
Described as above. The conditions noted are these: 0.1 M sodium phosphate pH 7, 40 °C, 0-5 mM substrate.

The target of series [3] is T3, TtPPO (Thermothelomyces thermophilus, UniProt G2QLD3, G312N/L326A).
T3 sequence (G2QLD3 23-424 G312N/L326A): T1 sequence (G2QLD3 23-424 G312N/Y316V) with V294Y, L304A
The description is as above. The conditions noted are these: 0.1 M sodium phosphate pH 7, 40 °C, 0-5 mM substrate.

Series [4] has as its target T4, TtPPO (Thermothelomyces thermophilus, UniProt G2QLD3).
T4 sequence (G2QLD3 23-424): T1 sequence (G2QLD3 23-424 G312N/Y316V) with N290G, V294Y
Described as above. The conditions noted are these: 0.1 M sodium phosphate pH 7, 40 °C, 0-5 mM substrate.

In series [5] the target is T5, TtPPO (Thermothelomyces thermophilus, UniProt G2QLD3, L326A).
T5 sequence (G2QLD3 23-424 L326A): T1 sequence (G2QLD3 23-424 G312N/Y316V) with N290G, V294Y, L304A
The description is as above. The conditions noted are these: 0.1 M sodium phosphate pH 7, 40 °C, 0-5 mM substrate.

Series [6] deals with T6, TtPPO (Thermothelomyces thermophilus, UniProt G2QLD3, G312N).
T6 sequence (G2QLD3 23-424 G312N): T1 sequence (G2QLD3 23-424 G312N/Y316V) with V294Y
Described as above. The conditions noted are these: 0.1 M sodium phosphate pH 7, 40 °C, 0-5 mM substrate.

Substrate in series [7]: COc1ccccc1O
Kind of series: purified protein. The conditions noted are these: 0.1 M sodium phosphate pH 7, 40 °C, 0-15 mM substrate.

Substrate in series [8]: N[C@@H](Cc1ccc(O)c(O)c1)C(=O)O
Put plainly: purified protein. The conditions noted are these: 0.1 M sodium phosphate pH 7, 40 °C, 0-7 mM substrate.

Substrate in series [9]: Oc1cc(O)c2c(c1)O[C@H](c1ccc(O)c(O)c1)[C@@H](O)C2
Put plainly: purified protein. The conditions noted are these: 0.1 M sodium phosphate pH 7, 40 °C, 0-10 mM substrate.

Substrate in series [10]: Oc1ccc(O)cc1
Put plainly: purified protein. The conditions noted are these: 0.1 M sodium phosphate pH 7, 40 °C, 0-70 mM substrate.

Substrate in series [11]: Oc1ccccc1O
Kind of series: purified protein. The conditions noted are these: 0.1 M sodium phosphate pH 7, 40 °C, 0-60 mM substrate.

Changes are numbered by the printed parent chain. Names may count otherwise.

With `Oc1ccc(Cl)cc1O` [4-chlorocatechol], the Km in series [1] amounted to 4.3 mM; in [2] it was 2.2 mM; in series [3], 500 µM; in [4], 1.8 mM; in series [5] it was 400 µM; in series [6], 3.5 mM.

B1: TtPPO (Thermothelomyces thermophilus ATCC 42464) (protein)
chain: T1 sequence (G2QLD3 23-424 G312N/Y316V) with N290G, V294Y
Consider B1, for which the Km in series [7] is given as 4.6(0.6) mM; in [8], 2.4(0.7) mM; in series [9], 33.7(14.0) mM; in series [10] it was 59.1(6.0) mM; in series [11] it was 32.5(4.3) mM. The kcat in series [7] is reported as 39.3(2.2) min^-1; in series [8], 4.3(0.5) min^-1; in series [9], 1619.1(549.2) min^-1; in series [10] it was 67.5(3.9) min^-1; in series [11] it was 8.6(0.6) min^-1.

B2: TtPPO (Thermothelomyces thermophilus ATCC 42464; G312N/Y316V) (protein)
chain: T1 sequence (G2QLD3 23-424 G312N/Y316V)
Consider B2, for which, in [9], the Km is recorded as 10.3(0.8) mM and the kcat was 33.3(1.7) min^-1.

B3: TtPPO (Thermothelomyces thermophilus ATCC 42464; Y316V) (protein)
chain: T1 sequence (G2QLD3 23-424 G312N/Y316V) with N290G
For the molecule B3, in series [9], the Km is 9.7(2.4) mM and the kcat was 547.3(84.6) min^-1.

B4: TtPPO (Thermothelomyces thermophilus ATCC 42464; G312N/L326A) (protein)
chain: T1 sequence (G2QLD3 23-424 G312N/Y316V) with V294Y, L304A
Turning to B4, in series [9], the Km is reported as 4.3(0.3) mM and the kcat is given as 337.9(11.2) min^-1.

B5: TtPPO (Thermothelomyces thermophilus ATCC 42464; L326A) (protein)
chain: T1 sequence (G2QLD3 23-424 G312N/Y316V) with N290G, V294Y, L304A
Regarding B5, in series [9], the Km is 2.8(0.5) mM and the kcat is given as 415.0(35.1) min^-1.

B6: TtPPO (Thermothelomyces thermophilus ATCC 42464; G312N) (protein)
chain: T1 sequence (G2QLD3 23-424 G312N/Y316V) with V294Y
With B6, in series [9], the Km is reported as 4.3(1.0) mM and the kcat is 2.9(0.3) min^-1.

Broadly, the Km is the concentration of substrate that gives half-maximal velocity.

These data come from publication doi:10.1101/2021.02.26.433144v1 (biorxiv, 2021).
